# B1: FluA-20 mAb (antibody, V domains shown)
# VH: QVQLEESGPGLVKPSETLSLTCSVSGVSVTSDIYYWTWIRQPPGKGLEWIGYIFYNGDTNYNPSLKSRVTMSIDTSKNEFSLRLTSVTAADTAVYFCARGTEDLGYCSSGSCPNHWGQGTLVTVSS
# VL: DIVMTQSPSSLSASIGDRVTITCRPSQNIRSFLNWFQHKPGKAPKLLIYAASNLQSGVPSRFSGSGSGTEFTLTIRSLQPEDFATYYCQQSYNTPPTFGQGTKVEIK
# B2: D2 H1-1/H3-1 mAb (antibody, V domains shown)
# VH: QVQLVQSGGGLVRPGGSLRLSCAASGFTFSSAWMTWVRQAPGKGLEWVANIKEDGSEKYYVDSVKGRFSISRDNAKNSLYLQISSLRAEDTAVYYCARRFVERLWGQSKPYDAVDIWGQGTMVTVSG
# VL: DIQMTQSPSSLSASVGDRVTITCRASQSISNYLNWYQQKPGKAPKLLIYVASNLQSGVPSRFSGSGSGTDFALTISSLQPEDFASYYCQQSYSPVTTFGGGTKVEIK
# B3: S1V2-58 mAb (antibody, V domains shown)
# VH: QVQLQESGPGLVKPSETLSLTCTVSGGSLSIYYWSWVRQSPGKGLEWIGYISNSGSPTYHPSLKSRVTISLDTSKSQFSLKLTSVTAADTALYFCARGVLEQLAPDFDSYYYGMNVWGQGTTVTVSG
# VL: DIQMTQSPSSVSASLGDRVTLTCRASQPIRSYLNWYQHKPGLAPKLLVYAVSNLQSGVPSRFSGSGSGTDFTLTVSSLQPEDFATYYCQQSYSTPYTFGQGTRLEIK
# Columns and labels:
# Test in all cases: BLI
# [1] = molecular target: HA220-M4T
# [2] = molecular target: HA220-1 (human, UniProt Q9NZ52 16-146)
# [3] = molecular target: HA220-4
Binder,Kd [1],Kd [2],Kd [3],koff [1]
B1,0.253 nM,> 12000 nM,110 nM,
B2,2.55 nM,,65 nM,0.00017 s⁻¹
B3,10.7 nM,,178 nM,0.00043 s⁻¹

# — paper doi:10.1101/2025.11.04.686334 (2025)
